The target in this assay is T1, SARS-CoV-2 WHU01 Spike RBD, monomeric (SARS-CoV-2, UniProt P0DTC2).
T1 construct: not shown: Fc (human IgG1), C-terminal, cleaved
The assay is described as follows: SPR. The following applies: both partners purified.

B1: Dog ACE2-huFc (soluble dog ACE2 ectodomain, human IgG1 Fc fusion) (Fc fusion)
chain: QSTEDLVKTFLEKFNYEAEELSYQSSLASWNYNINITDENVQKMNNAGAKWSAFYEEQSKLAKTYPLEEIQDSTVKRQLRALQHSGSSVLSADKNQRLNTILNSMSTIYSTGKACNPSNPQECLLLEPGLDDIMENSKDYNERLWAWEGWRSEVGKQLRPLYEEYVALKNEMARANNYEDYGDYWRGDYEEEWENGYNYSRNQLIDDVEHTFTQIMPLYQHLHAYVRTKLMDTYPSYISPTGCLPAHLLGDMWGRFWTNLYPLTVPFGQKPNIDVTNAMVNQSWDARKIFKEAEKFFVSVGLPNMTQEFWENSMLTEPSDSRKVVCHPTAWDLGKGDFRIKMCTKVTMDDFLTAHHEMGHIQYDMAYAAQPFLLRNGANEGFHEAVGEIMSLSAATPNHLKNIGLLPPSFFEDSETEINFLLKQALTIVGTLPFTYMLEKWRWMVFKGEIPKDQWMKTWWEMKRNIVGVVEPVPHDETYCDPASLFHVANDYSFIRYYTRTIYQFQFQEALCQIAKHEGPLHKCDISNSSEAGQKLLEMLKLGKSKPWTYALEIVVGAKNMDVRPLLNYFEPLFTWLKEQNRNSFVGWNTDWSPYADQSIKVRISLKSALGEKAYEWNNNEMYLFRSSIAYAMRQYFSEVKNQTIPFVEDNVWVSDLKPRISFNFFVTSPGNVSDIIPRTEVEEAIRMYRSRINDVFRLDDNSLEFLGIQPTLGPPYEPPVTI
notes: source: 293F cells, transfected, purified from supernatant (Protein A Sepharose)
As to B1, binding was put at a Kd of 275 nM, the koff stood at 0.0176 s⁻¹ and the kon came out at 60000 M⁻¹ s⁻¹.

The Kd is the concentration at which binding is half-saturated. As usually defined, the koff is the first-order rate constant of dissociation. Lower therefore signals a long-lived complex. As a reminder, the kon is a measure of how fast the partners come together. A high value points to fast association.

(Values after article PMC10715038 (Microbiology Spectrum, 2023).)
